The values below come from paper PMC5573662 (Bioorganic & medicinal chemistry, 2017).

The target in the test is full-length polo-like kinase 1 (Plk1) (UniProt P53350 1-603). The test can be described thus: ELISA. A general note: In an ELISA, binding on a coated surface is turned into a signal by an enzyme label.

Square brackets hold non-standard residues; d marks the D form. Ends that are not written are not given here. His(π-(CH2)8Ph) = N[C@@H](Cc1cncn1CCCCCCCCc1ccccc1)C(=O)O; pT = C[C@@H](OP(=O)(O)O)[C@H](N)C(=O)O

Sequence of full-length polo-like kinase 1 (Plk1) (P53350 whole entry): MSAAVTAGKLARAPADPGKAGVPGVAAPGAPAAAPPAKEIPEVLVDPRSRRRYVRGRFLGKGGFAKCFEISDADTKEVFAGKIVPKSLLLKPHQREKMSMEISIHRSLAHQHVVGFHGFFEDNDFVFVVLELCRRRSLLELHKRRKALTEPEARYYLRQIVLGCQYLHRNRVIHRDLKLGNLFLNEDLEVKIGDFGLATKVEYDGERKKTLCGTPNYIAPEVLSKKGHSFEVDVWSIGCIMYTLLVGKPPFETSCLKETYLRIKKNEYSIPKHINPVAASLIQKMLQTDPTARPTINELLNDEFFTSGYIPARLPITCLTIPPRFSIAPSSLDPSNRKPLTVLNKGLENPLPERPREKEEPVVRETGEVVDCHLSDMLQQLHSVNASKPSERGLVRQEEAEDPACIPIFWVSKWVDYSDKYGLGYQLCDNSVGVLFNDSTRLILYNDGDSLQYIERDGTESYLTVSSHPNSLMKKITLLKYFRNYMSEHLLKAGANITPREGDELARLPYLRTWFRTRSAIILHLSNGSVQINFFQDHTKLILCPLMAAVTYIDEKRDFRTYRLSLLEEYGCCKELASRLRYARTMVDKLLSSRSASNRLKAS

PL[His(π-(CH2)8Ph)]S[pT] [PLH*SpT (2a)]: the IC50 (in general, the point on the concentration scale where inhibition reaches its midpoint) amounted to 181 nM.
